Target: S. mutans VicK (aa31-450), entire intracellular region (S. mutans)
Assay: SEC-MALS; VicK at ~4 mg/ml resolved on a size exclusion column (Shodex KW-802.5) in 50 mM HEPES (pH 7.0), 200 mM Na2SO4 at 25°C; DAWN HELEOS II laser photometer; BSA as control

stoichiometry N: 2
Substance: S. mutans VicK (aa31-450), entire intracellular region (domain or fragment)
